# Experimental data reported in patent publication US20230279105A1 (SINGLE CELL TECHNOLOGY, published 2023).
# Positions count from the first letter of the chain named.
# B1: SCT-Fa076 (antibody, V domains shown)
# VH: EVQVLETGGGLVQPGGSRGLSCEGSGFTFSGFWMSWVRQTPGKTLEWIGDINSDGSTIHYGPSMKDRFTIFRDNDKNTLYLQMNNVRSEDTAKYFCMSLLLNVWGTGTTVTVSS
# VL: DIQMTQSPSSLSASLGERVSLTCRASQEISGYLSWLQQKPDGTIKRLISRASSLDFGVPKRFRGSRSGSDYSLTISSLESEDFADYYCLQYANYPLTFGAGTKLELK
# notes: murine IgG
# B2: SCT-Fa077 (antibody, V domains shown)
# VH: EVRLVESEGGLVQPGSSMKLSCTASGFTFSDYYMAWVRQVPEKGLEWVANINYDGTNTYYLDSLKSRFIISRDNAKNILYLQMSGLKSEDTATYYCGRGIYYYGRSHAMDYWGQGTSVTVSS
# VL: DILMTQSPSSMSVSLGDTVSITCHASQGINNNVGWLQQKPGKSFKGLIYHGTNLEDGVPSRFSGSGSGADYSLTIYSLESEDFADYYCVQYDQFPPTFGGGTKLEIK
# notes: murine IgG
# B3: SCT-Fa057 (antibody, V domains shown)
# VH: EVQLQQSGPVLVKPGASVKMSCKASGYTFTDYYMNWVKQSHGKSLEWIGVINPYNGGTSYNQKFKGKATLTVDKSSSTAYMELNSLTSEDSAVYYCARGGDYDVNYSAMDYWGQGTSVTVSS
# VL: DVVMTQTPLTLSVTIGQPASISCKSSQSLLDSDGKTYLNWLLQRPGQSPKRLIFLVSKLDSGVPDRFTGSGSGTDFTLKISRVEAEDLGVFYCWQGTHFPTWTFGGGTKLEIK
# notes: murine IgG
# B4: SCT-Fa055 (antibody, V domains shown)
# VH: EVQLQQSGPVLVKPGASVKMSCKASGYTFTDYHMNWVKQSHGKSLEWIGVISPYNGGTSQNQKFKGKATLTVDKSSSTAYMELNRLTSEDSAVYYCARSDYGSPLDYWGQGTTLTVSS
# VL: DIKMTQSPSSMYASLGERVTITCKASQDINSYLRWFQQKPGKSPKTLIYRANRLVDGVPSRFSGSGSGQDYSLNISSLEYEDMGIYYCLQYDEFPYTFGGGTKLEIK
# notes: murine IgG
# B5: SCT-Fa092 (antibody, V domains shown)
# VH: QIQLVQSGPEMKKPGETVKISCKASGYTFRTYGMSWVKQAPGKGLEWMGWINTYSGEPTYADDFKGRFAFSLETSANTAYLQINNLKNEDTATFFCARAQHYFDWWGQGTTLTVSS
# VL: B4 VL with N30D, R34N, N52T, N74T
# notes: murine IgG
# B6: SCT-Fa090 (antibody, V domains shown)
# VH: B5 VH with T28I
# VL: B4 VL with N30D, R34N, N52T, N74T
# notes: murine IgG
# B7: SCT-Fa091 (antibody, V domains shown)
# VH: B5 VH
# VL: B4 VL with N30D, S31R, R34N, N52T, N74T
# notes: murine IgG
# B8: SCT-Fa068 (antibody, V domains shown)
# VH: EVQLQQSGTVLARPGASVKMSCKTSGYTFTRYWMHWVKQRPGQGLEWIGAIYPGNSDTNYNQKIKGKAKLTAVTTASTAYMELSSLTNEDSAVYYCTFYYGNYVNYWGQGTTLTVSS
# VL: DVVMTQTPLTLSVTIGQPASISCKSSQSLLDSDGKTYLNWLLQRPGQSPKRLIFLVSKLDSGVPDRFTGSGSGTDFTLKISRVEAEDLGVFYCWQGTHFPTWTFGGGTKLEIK
# notes: murine IgG
# B9: SCT-Fa064 (antibody, V domains shown)
# VH: B8 VH with G66D, Y99F
# VL: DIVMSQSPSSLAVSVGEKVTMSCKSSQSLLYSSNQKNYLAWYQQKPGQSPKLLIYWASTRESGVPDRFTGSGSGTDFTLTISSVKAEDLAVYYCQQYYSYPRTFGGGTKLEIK
# notes: murine IgG
# B10: SCT-Fa063 (antibody, V domains shown)
# VH: B8 VH with T30I, N59T, I64F, K67R, T75S, Y106F
# VL: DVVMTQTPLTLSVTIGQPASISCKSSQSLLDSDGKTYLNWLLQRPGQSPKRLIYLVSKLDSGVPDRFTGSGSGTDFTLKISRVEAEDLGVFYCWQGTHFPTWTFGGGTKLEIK
# notes: murine IgG
# B11: SCT-Fa066 (antibody, V domains shown)
# VH: B8 VH with V93A
# VL: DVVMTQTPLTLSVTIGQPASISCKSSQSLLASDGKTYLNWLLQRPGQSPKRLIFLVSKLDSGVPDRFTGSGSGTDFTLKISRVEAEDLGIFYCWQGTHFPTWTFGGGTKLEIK
# notes: murine IgG
# B12: SCT-Fa065 (antibody, V domains shown)
# VH: B8 VH with S84I
# VL: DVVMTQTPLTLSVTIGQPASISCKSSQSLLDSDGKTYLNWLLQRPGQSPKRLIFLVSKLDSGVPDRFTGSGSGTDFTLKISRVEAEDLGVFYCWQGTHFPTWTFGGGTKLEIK
# notes: murine IgG
# B13: SCT-Fa067 (antibody, V domains shown)
# VH: B8 VH
# VL: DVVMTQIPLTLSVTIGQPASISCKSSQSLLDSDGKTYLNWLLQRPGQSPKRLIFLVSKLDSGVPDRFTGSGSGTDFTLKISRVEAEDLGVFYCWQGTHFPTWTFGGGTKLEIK
# notes: murine IgG
# B14: SCT-Fa069 (antibody, V domains shown)
# VH: B8 VH with K65Q, G66D, Y99F
# VL: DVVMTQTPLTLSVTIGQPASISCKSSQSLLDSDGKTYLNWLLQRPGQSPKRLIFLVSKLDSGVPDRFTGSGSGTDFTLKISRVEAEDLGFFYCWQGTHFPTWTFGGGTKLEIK
# notes: murine IgG
# B15: SCT-Fa062 (antibody, V domains shown)
# VH: B8 VH with S25P
# VL: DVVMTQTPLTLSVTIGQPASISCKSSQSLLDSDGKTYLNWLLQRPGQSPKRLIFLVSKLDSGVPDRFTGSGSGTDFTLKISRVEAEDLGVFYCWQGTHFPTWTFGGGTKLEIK
# notes: murine IgG
# B16: SCT-Fa095 (antibody, V domains shown)
# VH: QVQLKESGPGLVAPSQSLSITCTVSGFSLTSSVISWVRQPPGKGLEWLGIIWAGGDTNYNSALKSRLSISKDNSKSQVFLKMNSLQTDDTARYYCARNLNAMDYWGQGTSVTVSS
# VL: DVLMTQTPLSLTVSLGDQASISCRSSQSIVHSNGNTYLEWFLQKPGQSPKLLIYKVSNRFSGVPDRFSGSGSGTDFTLKISRVEAEDLGVYYCFQGSHVPWTFGGGTKLEIK
# notes: murine IgG
# B17: SCT-Fa088 (antibody, V domains shown)
# VH: QIQLQQSGPELVKPGASVKISCKASGYTFTDYYINWVKQRPGQGLEWIGWIYPGSGNTKYNEKFKGKATLTVDTSSSTAYMQLSSLTSEDSAVYFCARAYDYGFAYWGQGTLVTVSA
# VL: SIVMTQTPKFLLVSAGDRVTITCKASQSVSHGVTWYQQKPGQSPKLLISYASNRYTGVPDRFTGSGYGTDFTFTISTVQAEDLAVYFCQQDYSSPYTFGGGTKLEIK
# notes: murine IgG
# B18: SCT-Fa087 (antibody, V domains shown)
# VH: B17 VH with Q82H
# VL: B17 VL with H31Y, A51S, Y67S
# notes: murine IgG
# B19: SCT-Fa086 (antibody, V domains shown)
# VH: B17 VH with S77N, A105P
# VL: B17 VL with V29M, S30N, H31N, T77A
# notes: murine IgG
# B20: SCT-Fa072 (antibody, V domains shown)
# VH: EVQLVESGGDLVKPGGSLKLSCAASGFTFSDYGMSWVRQTPDKRLEWVATISSGGSYTYYADSVKGRFTISRDNAKNTLYLQMSSLKSEDTAMYFCTRHEITTVLSTDYAMDYWGQGTSVTVSS
# VL: DVVMTQTPLSLPVSLGDQASISCRSSQSLVHSIGNTYLHWYLQKPGQSPKLLIYKVSNRFSGVPDRFSGSGSGTDFTLKIIRVEAEDLGVYFCSQSTHIPWTFGGGTKLELR
# notes: murine IgG
# B21: SCT-Fa094 (antibody, V domains shown)
# VH: QVLLQQPGAELVRPGTSVKLSCKASGYTFTNFWMHWVKQRPGQGLEWIGVIDPSDISTHYNQNFKGKAILTVDTSSSSAYMQLSSLTSEDSAVYYCARNDYDGGYFDYWGQGTTLTVSS
# VL: B20 VL with S32G, I33N, K55T, I81S, S96T, T97I, I99A, L111I, R112K
# notes: murine IgG
# Target: T1, Human TIM-3 Human Fc tagged protein (human, fluorescently labeled with HiLyte Fluor 555 (sites not given))
# T1 construct: Bought construct; also called TIM-3 protein tagged with human Fc; ACROBiosystems catalog no: TM3-H5258
# Assay: capture slide probed with labeled TIM-3-Fc;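 also: IgG from single CD138-enriched plasma cells, isolated from lymphocytes, immobilized on a derivatized glass slide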
# From the text: Antibody secreted from each plasma cell was captured on a derivatized microscope slide.
row,Binder,binding result
1,B1,binds
2,B2,binds
3,B3,binds
4,B4,binds
5,B5,binds
6,B6,binds
7,B7,binds
8,B8,binds
9,B9,binds
10,B10,binds
11,B11,binds
12,B12,binds
13,B13,binds
14,B14,binds
15,B15,binds
16,B16,binds
17,B17,binds
18,B18,binds
19,B19,binds
20,B20,binds
21,B21,binds
